Test results: PMC4552821
Where two headings read alike, the source gives them in different places.

How the values were obtained:
[1] = target: Bone morphogenetic protein 2 (rhBMP-2) (UniProt P12643); assay: SPR (Reichert SR 7000 refractometer); details: pH 7.4; 20°C; 154 mM NaCl plus 6.7 mM phosphates (PBS); HyClone PBS (154 mM NaCl, 1.06 mM KH2PO4, 5.6 mM Na2HPO4) at pH 7.4. The pH 4.5 solvent is the same PBS acidified with d
[2] = target: Kerateine (KTN) extract, in solution (analyte); assay: SPR (Reichert SR 7000 refractometer); details: 20°C, no added salt, unbuffered
[3] = target: kerateine (reduced hair keratin extract) (Homo sapiens) (UniProt Q15323); assay: SPR
[4] = target: kerateine (reduced hair keratin extract) (Homo sapiens) (UniProt Q15323); assay: SPR; remark: listed apart in the source
[5] = pH 7, deionized water, water (pH 7)
[6] = pH 12, 10 mM NaOH, 10 mM NaOH (pH 12)

Bone morphogenetic protein 2 (rhBMP-2), sequence (P12643 whole entry): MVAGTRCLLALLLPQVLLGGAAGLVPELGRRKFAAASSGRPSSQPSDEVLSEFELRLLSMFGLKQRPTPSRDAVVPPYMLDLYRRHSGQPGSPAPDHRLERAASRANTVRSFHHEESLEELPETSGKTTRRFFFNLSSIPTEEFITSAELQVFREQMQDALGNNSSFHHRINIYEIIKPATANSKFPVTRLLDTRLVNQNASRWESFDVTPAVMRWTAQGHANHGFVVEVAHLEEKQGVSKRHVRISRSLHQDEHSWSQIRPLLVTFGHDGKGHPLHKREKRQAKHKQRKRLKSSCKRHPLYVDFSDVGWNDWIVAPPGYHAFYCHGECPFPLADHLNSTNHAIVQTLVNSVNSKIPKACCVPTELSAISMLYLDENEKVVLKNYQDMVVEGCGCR

For “Kerateine (KTN) extract, chemisorbed monolayer on gold”, the KD [1] was 32 µM, the “t1/2 (half-life of the complex)” value [1] was 3.73 min and the “ΔG (dissociation energy)” value [1] was 6.0 kcal/mol. The KD [2, 5] was 180 µM, the “t1/2 (half-life of the complex)” value [2, 5] was 1.28 min and the “ΔG (dissociation energy)” value [2, 5] was 5.0 kcal/mol. For the same substance, the KD [2, 6] was 100 µM, the “t1/2 (half-life of the complex)” value [2, 6] was 1.77 min and the “ΔG (dissociation energy)” value [2, 6] was 5.4 kcal/mol.

Substance “kerateine (reduced hair keratin extract), Q15323” has a Kd [3] of 180 µM and a Kd [4] of 100 µM.
